Article PMC2139951

What was measured:
[1] = target: Ran (recombinant, GTP form) (UniProt P62826)
[2] = target: Ran (recombinant, GTP form) (UniProt P62826); test: inhibition of GAP-induced GTP hydrolysis on Ran

Row | Substance | offrate [1] | Kd [2]
1 | recombinant Xenopus RanBP7 with COOH-terminal his-tag (natural protein) | 2 h | 25 nM
2 | recombinant importin-β (from UniProt Q14974 1-876) (natural protein; other documents disagree on this pair) | – | 0.8 nM
